Results published in IntAct's records for PubMed 20505668.

B1: Isocitrate dehydrogenase kinase/phosphatase (Escherichia coli (strain K12)), P11071 (parent)
chain: MPRGLELLIAQTILQGFDAQYGRFLEVTSGAQQRFEQADWHAVQQAMKNRIHLYDHHVGLVVEQLRCITNGQSTDAAFLLRVKEHYTRLLPDYPRFEIAESFFNSVYCRLFDHRSLTPERLFIFSSQPERRFRTIPRPLAKDFHPDHGWESLLMRVISDLPLRLRWQNKSRDIHYIIRHLTETLGTDNLAESHLQVANELFYRNKAAWLVGKLITPSGTLPFLLPIHQTDDGELFIDTCLTTTAEASIVFGFARSYFMVYAPLPAALVEWLREILPGKTTAELYMAIGCQKHAKTESYREYLVYLQGCNEQFIEAPGIRGMVMLVFTLPGFDRVFKVIKDRFAPQKEMSAAHVRACYQLVKEHDRVGRMADTQEFENFVLEKRHISPALMELLLQEAAEKITDLGEQIVIRHLYIERRMVPLNIWLEQVEGQQLRDAIEEYGNAIRQLAAANIFPGDMLFKNFGVTRHGRVVFYDYDEICYMTEVNFRDIPPPRYPEDELASEPWYSVSPGDVFPEEFRHWLCADPRIGPLFEEMHADLFRADYWRALQNRIREGHVEDVYAYRRRQRFSVRYGEMLF
partner: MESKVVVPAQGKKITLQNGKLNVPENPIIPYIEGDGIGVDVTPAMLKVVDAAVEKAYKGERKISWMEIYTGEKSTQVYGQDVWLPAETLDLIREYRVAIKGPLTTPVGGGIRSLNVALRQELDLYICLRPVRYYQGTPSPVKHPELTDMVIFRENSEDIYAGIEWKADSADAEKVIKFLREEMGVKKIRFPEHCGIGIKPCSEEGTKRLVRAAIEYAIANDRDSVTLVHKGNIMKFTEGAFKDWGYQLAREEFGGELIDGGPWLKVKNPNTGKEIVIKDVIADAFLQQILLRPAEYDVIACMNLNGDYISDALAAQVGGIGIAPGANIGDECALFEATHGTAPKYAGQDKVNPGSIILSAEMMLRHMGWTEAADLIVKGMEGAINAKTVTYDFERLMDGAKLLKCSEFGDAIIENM

Variants of: B1
Conditions: with idh_ecoli icd

Effect of a mutation on the interaction, disrupting interaction:
MPRGLELLIAQTILQGFDAQYGRFLEVTSGAQQRFEQADWHAVQQAMKNRIHLYDHHVGLVVEQLRCITNGQSTDAAFLLRVKEHYTRLLPDYPRFEIAESFFNSVYCRLFDHRSLTPERLFIFSSQPERRFRTIPRPLAKDFHPDHGWESLLMRVISDLPLRLRWQNKSRDIHYIIRHLTETLGTDNLAESHLQVANELFYRNKAAWLVGKLITPSGTLPFLLPIHQTDDGELFIDTCLTTTAEASIVFGFARSYFMVYAPLPAALVEWLREILPGKTTAELYMAIGCQKHAKTESYREYLVYLQGCNEQFIEAPGIRGMVMLVFTLPGFDRVFKVIKDRFAPQKEMSAAHVRACYQLVKEHDRVGRMADTQEFENFVLEKRHISPALMELLLQEAAEKITDLGEQIVIRHLYIERRMVPLNIWLEQVEGQQLRDAIEEYGNAIRQLAAANIFPGDMLFKAFGVTRHGRVVFYDYDEICYMTEVNFRDIPPPRYPEDELASEPWYSVSPGDVFPEEFRHWLCADPRIGPLFEEMHADLFRADYWRALQNRIREGHVEDVYAYRRRQRFSVRYGEMLF [N462A]
MPRGLELLIAQTILQGFDAQYGRFLEVTSGAQQRFEQADWHAVQQAMKNRIHLYDHHVGLVVEQLRCITNGQSTDAAFLLRVKEHYTRLLPDYPRFEIAESFFNSVYCRLFDHRSLTPERLFIFSSQPERRFRTIPRPLAKDFHPDHGWESLLMRVISDLPLRLRWQNKSRDIHYIIRHLTETLGTDNLAESHLQVANELFYRNKAAWLVGKLITPSGTLPFLLPIHQTDDGELFIDTCLTTTAEASIVFGFARSYFMVYAPLPAALVEWLREILPGKTTAELYMAIGCQKHAKTESYREYLVYLQGCNEQFIEAPGIRGMVMLVFTLPGFDRVFAVIKDRFAPQKEMSAAHVRACYQLVKEHDRVGRMADTQEFENFVLEKRHISPALMELLLQEAAEKITDLGEQIVIRHLYIERRMVPLNIWLEQVEGQQLRDAIEEYGNAIRQLAAANIFPGDMLFKNFGVTRHGRVVFYDYDEICYMTEVNFRDIPPPRYPEDELASEPWYSVSPGDVFPEEFRHWLCADPRIGPLFEEMHADLFRADYWRALQNRIREGHVEDVYAYRRRQRFSVRYGEMLF [K336A]
MPRGLELLIAQTILQGFDAQYGRFLEVTSGAQQRFEQADWHAVQQAMKNRIHLYDHHVGLVVEQLRCITNGQSTDAAFLLRVKEHYTRLLPDYPRFEIAESFFNSVYCRLFDHRSLTPERLFIFSSQPERRFRTIPRPLAKDFHPDHGWESLLMRVISDLPLRLRWQNKSRDIHYIIRHLTETLGTDNLAESHLQVANELFYRNKAAWLVGKLITPSGTLPFLLPIHQTDDGELFIDTCLTTTAEASIVFGFARSYFMVYAPLPAALVEWLREILPGKTTAELYMAIGCQKHAKTESYREYLVYLQGCNEQFIEAPGIRGMVMLVFTLPGFDRVFKVIKDRFAPQKEMSAAHVRACYQLVKEHDRVGRMADTQEFENFVLEKRHISPALMELLLQEAAEKITDLGEQIVIRHLYIERRMVPLNIWLEQVEGQQLRDAIEEYGNAIRQLAAANIFPGDMLFKNFGVTRHGRVVFYAYDEICYMTEVNFRDIPPPRYPEDELASEPWYSVSPGDVFPEEFRHWLCADPRIGPLFEEMHADLFRADYWRALQNRIREGHVEDVYAYRRRQRFSVRYGEMLF [D475A]
MPRGLELLIAQTILQGFDAQYGRFLEVTSGAQQRFEQADWHAVQQAMKNRIHLYDHHVGLVVEQLRCITNGQSTDAAFLLRVKEHYTRLLPDYPRFEIAESFFNSVYCRLFDHRSLTPERLFIFSSQPERRFRTIPRPLAKDFHPDHGWESLLMRVISDLPLRLRWQNKSRDIHYIIRHLTETLGTDNLAESHLQVANELFYRNKAAWLVGKLITPSGTLPFLLPIHQTDDGELFIDTCLTTTAEASIVFGFARSYFMVYAPLPAALVEWLREILPGKTTAELYMAIGCQKHAKTESYREYLVYLQGCNEQFIEAPGIRGMVMLVFTLPGFDRVFKVIKDRFAPQKEMSAAHVRACYQLVKEHDRVGRMADTQEFENFVLEKRHISPALMELLLQEAAEKITDLGEQIVIRHLYIERRMVPLNIWLEQVEGQQLRDAIEEYGNAIRQLAAANIFPGDMLFKNFGVTRHGRVVFYDYDEICYMTEVNFRDIPPPRYPKDKLASEPWYSVSPGDVFPEEFRHWLCADPRIGPLFEEMHADLFRADYWRALQNRIREGHVEDVYAYRRRQRFSVRYGEMLF [E497K;E499K]

Variants of: B1
Conditions: with idh_ecoli icd
Remark: another data set of the same source

Effect of a mutation on the interaction, disrupting interaction:
MPRGLELLIAQTILQGFDAQYGRFLEVTSGAQQRFEQADWHAVQQAMKNRIHLYDHHVGLVVEQLRCITNGQSTDAAFLLRVKEHYTRLLPDYPRFEIAESFFNSVYCRLFDHRSLTPERLFIFSSQPERRFRTIPRPLAKDFHPDHGWESLLMRVISDLPLRLRWQNKSRDIHYIIRHLTETLGTDNLAESHLQVANELFYRNKAAWLVGKLITPSGTLPFLLPIHQTDDGELFIDTCLTTTAEASIVFGFARSYFMVYAPLPAALVEWLREILPGKTTAELYMAIGCQKHAKTESYREYLVYLQGCNEQFIEAPGIRGMVMLVFTLPGFDRVFKVIKDRFAPQKEMSAAHVRACYQLVKEHDRVGRMADTQEFENFVLEKRHISPALMELLLQEAAEKITDLGEQIVIRHLYIERRMVPLNIWLEQVEGQQLRDAIEEYGNAIRQLAAANIFPGDMLFKNFGVTRHGRVVFYDYAEICYMTEVNFRDIPPPRYPEDELASEPWYSVSPGDVFPEEFRHWLCADPRIGPLFEEMHADLFRADYWRALQNRIREGHVEDVYAYRRRQRFSVRYGEMLF [D477A]
MPRGLELLIAQTILQGFDAQYGRFLEVTSGAQQRFEQADWHAVQQAMKNRIHLYDHHVGLVVEQLRCITNGQSTDAAFLLRVKEHYTRLLPDYPRFEIAESFFNSVYCRLFDHRSLTPERLFIFSSQPERRFRTIPRPLAKDFHPDHGWESLLMRVISDLPLRLRWQNKSRDIHYIIRHLTETLGTDNLAESHLQVANELFYRNKAAWLVGKLITPSGTLPFLLPIHQTDDGELFIDTCLTTTAEASIVFGFARSYFMVYAPLPAALVEWLREILPGKTTAELYMAIGCQKHAKTESYREYLVYLQGCNEQFIEAPGIRGMVMLVFTLPGFDRVFKVIKDRFAPQEEMSAAHVRACYQLVKEHDRVGRMADTQEFENFVLEKRHISPALMELLLQEAAEKITDLGEQIVIRHLYIERRMVPLNIWLEQVEGQQLRDAIEEYGNAIRQLAAANIFPGDMLFKNFGVTRHGRVVFYDYDEICYMTEVNFRDIPPPRYPEDELASEPWYSVSPGDVFPEEFRHWLCADPRIGPLFEEMHADLFRADYWRALQNRIREGHVEDVYAYRRRQRFSVRYGEMLF [K346E]
